Source: patent publication EP1891228B1 (Janssen Pharmaceutica NV, dated 2016)

Target: HDAC1-flag (Homo sapiens (Human), UniProt Q13547 1-482)
Test: cell-based or functional assay

HDAC1-flag, sequence (Q13547 whole entry, form in doubt): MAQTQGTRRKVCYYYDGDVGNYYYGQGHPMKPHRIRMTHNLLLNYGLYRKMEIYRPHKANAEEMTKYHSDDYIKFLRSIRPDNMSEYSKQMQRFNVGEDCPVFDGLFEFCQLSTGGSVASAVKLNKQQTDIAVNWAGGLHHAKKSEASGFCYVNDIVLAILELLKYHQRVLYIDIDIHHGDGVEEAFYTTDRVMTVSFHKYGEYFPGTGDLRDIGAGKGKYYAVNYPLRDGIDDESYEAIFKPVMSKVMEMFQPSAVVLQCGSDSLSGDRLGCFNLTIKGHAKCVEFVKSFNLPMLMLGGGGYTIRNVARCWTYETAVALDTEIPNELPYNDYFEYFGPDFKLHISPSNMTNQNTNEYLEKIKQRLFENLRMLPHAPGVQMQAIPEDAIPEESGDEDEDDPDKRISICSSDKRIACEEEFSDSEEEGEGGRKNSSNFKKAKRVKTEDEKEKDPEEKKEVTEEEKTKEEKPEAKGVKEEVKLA

B1: V5-APPL (full length APPL) (other, not shown: small tags and cut ends)
chain: MPGIDKLPIEETLEDSPQTRSLLGVFEEDATAISNYMNQLYQAMHRIYDAQNELSAATHLTSKLLKEYEKQRFPLGGDDEVMSSTLQQFSKVIDELSSCHAVLSTQLADAMMFPITQFKERDLKEILTLKEVFQIASNDHDAAINRYSRLSKKRENDKVKYEVTEDVYTSRKKQHQTMMHYFCALNTLQYKKKIALLEPLLGYMQAQISFFKMGSENLNEQLEEFLANIGTSVQNVRREMDSDIETMQQTIEDLEVASDPLYVPDPDPTKFPVNRNLTRKAGYLNARNKTGLVSSTWDRQFYFTQGGNLMSQARGDVAGGLAMDIDNCSVMAVDCEDRRYCFQITSFDGKKSSILQAESKKDHEEWICTINNISKQIYLSENPEETAARVNQSALEAVTPSPSFQQRHESLRPAAGQSRPPTARTSSSGSLGSESTNLAALSLDSLVAPDTPIQFDIISPVCEDQPGQAKAFGQGGRRTNPFGESGGSTKSETEDSILHQLFIVRFLGSMEVKSDDHPDVVYETMRQILAARAIHNIFRMTESHLLVTCDCLKLIDPQTQVTRLTFPLPCVVLYATHQENKRLFGFVLRTSSGRSESNLSSVCYIFESNNEGEKICDSVGLAKQIALHAELDRRASEKQKEIERVKEKQQKELNKQKQIEKDLEEQSRLIAASSRPNQASSEGQFVVLSSSQSEESDLGEGGKKRESEA
HDAC1 activity: release of acetic acid from a [3H]acetyl-labeled Histone H4 peptide by immunoprecipitated HDAC1: ~4 fold
